Test results taken from patent US11607466B2, “Tumor and immune cell imaging based on PD-L1 expression” (The Johns Hopkins University, priority 2016, dated 2023).
Values joined by “and” are separate entries in the source; they are usually repeats but may differ in a detail not shown here. Identical values can stand only once.

Experiments:
PD-L1 in hPD-L1 tumors = molecular target: T1, PD-L1 in hPD-L1 tumors (Homo sapiens, UniProt Q9NZQ7); experiment: Tumor PD-L1 engagement by AtzMab measured with [64Cu]WL12, hPD-L1/CHO tumors; assay type: in vivo, mouse; conditions: AtzMab 20 mg/kg 24 h prior to tracer
T1 construct: expressed in transfected cells; grown as tumours in NSG mice for the in vivo units
T1 sequence (Q9NZQ7 19-290): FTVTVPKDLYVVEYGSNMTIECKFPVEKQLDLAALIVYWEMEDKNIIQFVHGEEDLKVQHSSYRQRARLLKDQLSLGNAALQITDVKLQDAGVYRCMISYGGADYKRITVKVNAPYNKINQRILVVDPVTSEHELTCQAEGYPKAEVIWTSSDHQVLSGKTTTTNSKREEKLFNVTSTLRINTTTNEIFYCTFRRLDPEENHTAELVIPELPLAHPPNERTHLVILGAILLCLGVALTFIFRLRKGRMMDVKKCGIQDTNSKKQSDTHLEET
Text: 2.1.3.3 PD-L1 therapeutic antibody accumulation in the tumors by PD-L1 PET: While evaluating the specificity of WL12 for PD-L1, it was discovered that WL12 competes with AtzMab to the same binding site on PD-L1. This provides a novel and previously unanticipated means to evaluate AtzMab therapy at tumor sites, where it is needed, using PD-L1-directed PET. Improved understanding of the distribution of PD-L1 antibodies in tumors may impact clinical antibody dosing and therapeutic monitoring. Therefore, the ability of [^64Cu]WL12-PET to assess AtzMab binding to PD-L1 within tumors was tested. Accumulation of radioactivity in hPD-L1 tumors was reduced by 80% in mice injected with AtzMab (20 mg/kg) as quantified by [^64Cu]WL12-PET and biodistribution studies (FIG. 21A, FIG. 21B, and FIG. 21C). […] The applicability of this approach was extended to cancer cell lines with native increase in PD-L1 expression.
To assess the effect of a single dose of AtzMab on targeting different PD-L1 levels in the tumors, PET and biodistribution studies were performed in tumors derived from the CHO-hPDL1 cell line, which has four- to ten-fold higher PD-L1 expression than NSCLC cells (FIG. 36). […] Those observations were confirmed by strong and week immunoreactivity observed in hPD-L1 and CHO tumors, respectively (FIG. 35I).

PD-L1 in H226 xenografts = molecular target: T2, PD-L1 in H226 xenografts (Homo sapiens, UniProt Q9NZQ7); experiment: Tumor PD-L1 engagement by AtzMab measured with [64Cu]WL12, H226 xenografts; assay type: in vivo; conditions: AtzMab 20 mg/kg for 24 h, vs saline controls
T2 construct: Each of which naturally expresses PD-L1; endogenous in cells; host or cells: HCC827 and H226 NSCLC cells; as xenografts in NOD scid gamma mice for the in vivo units
T2 sequence (Q9NZQ7 19-290): as above
Text: (§1) 3.3.2 Quantifying Tumor PD-L1 engagement by AtzMab. To evaluate PD-L1 engagement by the therapeutic mAbs at the tumor non-invasively in vivo, NSCLC xenograft models were studied. Those models were selected because nearly 50% of NSCLCs are PD-L1-positive and PD-L1 IHC is used as a predictive biomarker in patients with NSCLC undergoing immune checkpoint therapy (Mansfield, et al., 2016). […] There is a clear reduction in the accumulation of radioactivity in tumors of AtzMab-treated mice, indicating reduced levels of available PD-L1 sites, compared to treated controls (FIG. 35A and FIG. 35B). […] PD-L1 expression levels were confirmed by PD-L1 IHC of the xenografts (FIG. 35C and FIG. 35F).

[1] = molecular target: T3, PD-L1 in HCC827 xenografts (Homo sapiens, UniProt Q9NZQ7); experiment: Tumor PD-L1 engagement by AtzMab measured with [64Cu]WL12, HCC827 xenografts; assay type: in vivo; conditions: AtzMab 20 mg/kg for 24 h, vs saline controls
T3 construct: Each of which naturally expresses PD-L1; endogenous in cells; host or cells: HCC827 and H226 NSCLC cells; as xenografts in NOD scid gamma mice for the in vivo units
T3 sequence (Q9NZQ7 19-290): as above
Text: as §1

[2] = molecular target: T4, PD-L1 in A549-iPDL1 cells (Homo sapiens, UniProt Q9NZQ7); experiment: Binding studies in doxycycline-inducible A549-iPDL1 cells; assay type: cell-based; conditions: 60 nM mAb
T4 construct: expressed in transfected cells; host or cells: A549 NSCLC cells, lentiviral pINDUCER20, G418-selected, doxycycline-induced
T4 sequence (Q9NZQ7 19-290): as above
Text: To do so, an A549 NSCLC cell line with doxycycline-inducible PD-L1 expression (A549-iPD-L1) was generated. A549 is a Kras G12S lung adenocarcinoma cell line that expresses low PD-L1 at baseline.

PD-L1 in MDAMB231 tumors [3] = molecular target: T5, PD-L1 in MDAMB231 tumors (Homo sapiens, UniProt Q9NZQ7); experiment: Tumor PD-L1 engagement by PD-L1 mAbs measured with [64Cu]WL12, MDAMB231 xenografts; assay type: in vivo
T5 construct: MDAMB231 breast cancer cells, which naturally express PD-L1; endogenous in cells; host or cells: MDAMB231 (ATCC); as xenografts in NSG mice for the in vivo units
T5 sequence (Q9NZQ7 19-290): as above
Method: To evaluate the effect of dose on tumor PD-L1 occupancy at the tumor, mice bearing MDAMB231 tumors were injected with escalating doses of AtzMab from 0.009 to 24 mg/kg body weight.

PD-L1 in MDAMB231 tumors [4] = molecular target: T5, PD-L1 in MDAMB231 tumors; experiment: Effect of AtzMab dose on tumor PD-L1 occupancy, inhibitory sigmoidal Emax model of [64Cu]WL12 % ID/g; assay type: in vivo
Method: To evaluate the effect of dose on tumor PD-L1 occupancy at the tumor, mice bearing MDAMB231 tumors were injected with escalating doses of AtzMab from 0.009 to 24 mg/kg body weight. […] At the 0.6 and 3.2 mg/kg dose, there was a proportionate decrease in signal intensity in the tumors indicating—for the 3.2 mg/kg dose—a near 100% target engagement at the tumor by the antibody.
The accumulated radioactivity (% ID/g) in the tumors was then used to fit an inhibitory sigmoidal E. model.

[5] = molecular target: T6, PD-L1 in HCC827, H226, hPD-L1 and MDAMB231 cells (Homo sapiens, UniProt Q9NZQ7); experiment: [64Cu]WL12 binding to PD-L1-positive cells in the presence of 60 nM mAbs; assay type: cell-based; conditions: 60 nM mAb vs PBS control
T6 construct: Each of which naturally expresses PD-L1; endogenous in cells; host or cells: HCC827, H226, MDAMB231 (endogenous) and CHO-hPD-L1 (stably transfected)
T6 sequence (Q9NZQ7 19-290): as above
Method: Non-interacting residues are shown in gray. […] Mean fluorescence intensities were determined by flow cytometry.
HCC827 and H226 non-small cell lung cancer (NSCLC) cells also were tested.

human PD-L1 = human PD-L1 (Homo sapiens, UniProt Q9NZQ7); conditions: read-out: dissociation constant (Kd), human PD-L1; cited from earlier work
Chain of human PD-L1 (Q9NZQ7 19-290): as above

mouse PD-L1 = mouse PD-L1 (Mus musculus, UniProt Q9EP73); conditions: read-out: dissociation constant (Kd), mouse PD-L1; cited from earlier work
Chain of mouse PD-L1 (Q9EP73 19-290): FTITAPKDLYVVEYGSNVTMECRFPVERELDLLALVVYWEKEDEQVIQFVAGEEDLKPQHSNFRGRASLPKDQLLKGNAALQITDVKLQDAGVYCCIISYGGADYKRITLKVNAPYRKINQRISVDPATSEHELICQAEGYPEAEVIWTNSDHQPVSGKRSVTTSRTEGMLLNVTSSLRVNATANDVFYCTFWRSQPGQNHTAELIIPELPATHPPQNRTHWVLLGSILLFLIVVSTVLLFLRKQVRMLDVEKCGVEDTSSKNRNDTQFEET

PD-L1 in MDAMB231 tumors [6] = molecular target: T5, PD-L1 in MDAMB231 tumors; experiment: Tumor PD-L1 engagement by PD-L1 mAbs measured with [64Cu]WL12, MDAMB231 xenografts; assay type: in vivo; conditions: AtzMab 20 mg/kg, AveMab 10 mg/kg, DurMab 10 mg/kg, 24 h prior to tracer
[7] = Stroh, et al., 2017; cited from earlier work

Substance: AtzMab: therapeutic PD-L1 antibody Atezolizumab
- reduction of [64Cu]WL12 accumulation in hPD-L1 tumors (PD-L1 in hPD-L1 tumors): 80% and 77%
- reduction in [64Cu]WL12 % ID/g, H226 xenografts (PD-L1 in H226 xenografts): 34%
- reduction in [64Cu]WL12 % ID/g, HCC827 xenografts [1]: 47%
- decrease of [64Cu]WL12 binding to doxycycline-treated A549-iPDL1 cells [2]: 65%
- [64Cu]WL12 uptake compared to untreated controls, PET (PD-L1 in MDAMB231 tumors [3]; AtzMab 0.06 mg/kg): no difference
- [64Cu]WL12 tumor uptake at 120 h compared to 24 h (PD-L1 in MDAMB231 tumors [3]; AtzMab 0.6 mg/kg): significant increase
- target engagement at the tumor (PD-L1 in MDAMB231 tumors [3]; AtzMab 3.2 mg/kg): ~100%
- [64Cu]WL12 tumor uptake at 120 h compared to 24 h (PD-L1 in MDAMB231 tumors [3]; AtzMab 10 or 20 mg/kg): no significant temporal difference
- PD-L1 occupancy at 24 and 120 h (PD-L1 in MDAMB231 tumors [3]; atezolizumab 1 mg/Kg): increased accumulation of [^64Cu]WL12 can be seen at 120 h but not at 24 h
- PD-L1 occupancy at 24 and 120 h (PD-L1 in MDAMB231 tumors [3]; atezolizumab 10 mg/Kg): complete blockade of PD-L1
- less uptake of [64Cu]WL12 in tumors vs saline controls (PD-L1 in MDAMB231 tumors [3]; mAb 24 h prior, 120 min after tracer injection, ex vivo): approximately 60%
- ID90 (PD-L1 in MDAMB231 tumors [4]; 90% of Imax): 0.87 mg/kg
- ID96 (PD-L1 in MDAMB231 tumors [4]; 96% of Imax): 1.19 mg/kg
- ID50, dose for 50% of the maximum PD-L1 engagement in the tumor (PD-L1 in MDAMB231 tumors [4]; MDAMB231 tumors, 24 h after dose): 0.43 mg/kg and 0.43 (10%) mg/kg
- expected average plasma concentration (PD-L1 in MDAMB231 tumors [4]; at ID50, assuming Vss 50 mL/kg): 59 nM and 8.6 mcg/mL
- expected average plasma concentration (PD-L1 in MDAMB231 tumors [4]; at ID90, assuming Vss 50 mL/kg): 120 nM and 17.4 mcg/mL
- expected average plasma concentration (PD-L1 in MDAMB231 tumors [4]; at ID96, assuming Vss 50 mL/kg): 164 nM and 23.8 mcg/mL
- Imax (PD-L1 in MDAMB231 tumors [4]; maximum fractional decrease in free PD-L1 ligands, mean (% RSE)): 0.57 (3%)
- Hill coefficient (PD-L1 in MDAMB231 tumors [4]; mean (% RSE)): 3.12 (19%)
- Residual error (PD-L1 in MDAMB231 tumors [4]; mean (% RSE)): 0.44 (14%) % ID/g
- Baseline free PD-L1 ligands (PD-L1 in MDAMB231 tumors [4]; mean parameter value (% relative standard error)): 5.91 (1%) % ID/g
- [64Cu]WL12 accumulation in tumors vs antibody dose (PD-L1 in MDAMB231 tumors [4]; various doses, 24 h prior, biodistribution 2 h after tracer): reduced with increasing antibody dose
- [64Cu]WL12 binding to PD-L1-positive cells [5]: inhibited
- Kd (human PD-L1): 0.43 nM
- Kd (mouse PD-L1): 0.13 nM
- [64Cu]WL12 uptake in MDAMB231 xenografts (PD-L1 in MDAMB231 tumors [6]): significantly reduced
- linearity of pharmacokinetics [7]: non-linear PK below 0.6-1 mg/kg and linear PK above 1 mg/kg dose
